The target in assay [1] is T1, mouse recombinant TGFbR2-Fc protein (mouse, UniProt Q62312-1 24-184, limits assumed).
T1 construct: also called mouse TGFbR2; not shown: Fc part of the fusion protein
T1 sequence (looked up): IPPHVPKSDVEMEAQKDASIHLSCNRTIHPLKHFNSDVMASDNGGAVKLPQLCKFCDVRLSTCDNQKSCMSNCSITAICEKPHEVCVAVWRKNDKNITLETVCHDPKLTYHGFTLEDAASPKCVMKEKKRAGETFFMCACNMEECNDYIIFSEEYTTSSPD
Put plainly: ELISA, mouse recombinant TGFbR2-Fc as capture, mouse CAR-T supernatant, anti-flag HRP detection. The procedure: (§1) Supernatant from TGF-β modulating CAR-T cells were assayed by ELISA to detect anti-TGF-β and anti-TGFβR2 antibodies. Maxisorp 96 well plates were coated with recombinant human TGF-β […] or hTGFβR2-Fc (0.1 mg/ml; RnD System) in 100 μl coating buffer overnight at 4° C. Plates were washed with 1× wash buffer and blocked for 1 hour with reagent diluent at room temperature. CAR-T supernatant, recombinant TGFβR2-flag, or recombinant TGF-3-flag antibody was added and incubated for 2 hours at room temperature.
(§2) After another washing step, HRP-conjugated flag-tag antibody was added and incubated for 30 minutes at room temperature. Plates were washed and TMB substrate was added for 10-20 minutes. The reaction was stopped using Stop reagent and plates were read at 450 nm using a Pherastar Plate reader. ELISA using coated TGF-b detected high levels of TGF-b scFv VH-VL1 and TGF-b scFv VH-VL2 as compared to TGF-b scFv VL-VH using anti-flag tag HRP antibodies for binder detection (FIG. 3A). ELISA using coated TGFbR2-Fc detected high levels of TGFbR2 scFv VH-VL, TGFbR2 scFv VL-VH and hTGFbR2 VH1 from human CAR-T but was unable to detect mTGFbR2 VH1 (FIG. 3B). TGF-β binders and TGFβR2 binders were secreted by TGF-β modulating CAR-T cells and bind to their cognate antigen.
Supernatant was harvested two days after transduction and frozen at −80′C until used for ELISA. ELISA was performed as described in Example 3. Human recombinant TGFbR2-Fc protein was used for capturing binders against human TGFbR2 and mouse recombinant TGFbR2-Fc protein was used for probing binding of TGFbR2 binders to mouse TGFbR2. Binding was detected using anti-flag HRP antibodies and the respective substrate. […] None of the binders from the tested supernatants bound to mouse TGFbR2 confirming specificity for human TGFBR2.
In general terms: An ELISA detects its analyte on a solid surface through an enzyme-linked reagent.

Assay [2] concerns the target T2, hTGFβR2-Fc (human, UniProt P37173 23-159).
T2 construct: Bought (RnD Systems); also called TGFbR2-Fc; human recombinant TGFbR2-Fc protein; not shown: Fc part of the bought fusion protein
The assay is described as follows: ELISA, plate coated with hTGFβR2-Fc, CAR-T supernatant, anti-flag HRP detection. On the procedure: as §1, §2

For assay [3], the target named is T2, hTGFβR2-Fc. The assay is described as follows: ELISA, human recombinant TGFbR2-Fc as capture, mouse CAR-T supernatant, anti-flag HRP detection. On the procedure:
as §1
as §2, with “TGF-β binders and TGFβR2 binders were secreted by TGF-β modulating CAR-T cells and bind to their cognate antigen.” left out
(§3) Supernatant was harvested two days after transduction and frozen at −80′C until used for ELISA. […] Binding was detected using anti-flag HRP antibodies and the respective substrate. […]

In assay [4] the target is T2, hTGFβR2-Fc. Put plainly: ELISA, plate coated with hTGFβR2-Fc, human CAR-T supernatant, anti-flag HRP detection. On the procedure:
as §1, §2

Assay [5] has as its target T2, hTGFβR2-Fc. The assay is described as follows: ELISA (figure legend). The procedure: as §1
as §2, with “TGF-β binders and TGFβR2 binders were secreted by TGF-β modulating CAR-T cells and bind to their cognate antigen.” left out
as §3

From patent US20240131158A1 (Takeda / Millennium, published 2024) come the findings set out here.

Changes are numbered by the printed parent chain. Names and notes keep the numbering of the source.

T2 sequence (P37173 23-159 limits assumed): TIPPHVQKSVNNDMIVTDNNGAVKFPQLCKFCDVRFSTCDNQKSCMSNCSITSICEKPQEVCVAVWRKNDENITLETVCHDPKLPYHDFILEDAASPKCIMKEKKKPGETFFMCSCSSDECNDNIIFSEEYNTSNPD

B1: hTGFbR2 scFv VH-VL G4S dimer (scFv)
chain: QLQVQESGPGLVKPSETLSLTCTVSGGSISNSYFSWGWIRQPPGKGLEWIGSFYYGEKTYYNPSLKSRATISIDTSKSQFSLKLSSVTAADTAVYYCPRGPTMIRGVIDSWGQGTLVTVSSGGGGSGGGGSGGGGSEIVLTQSPATLSLSPGERATLSCRASQSVRSYLAWYQQKPGQAPRLLIYDASNRATGIPARFSGSGSGTDFTLTISSLEPEDFAVYYCQQRSNWPPTFGQGTKVEIKGGGGSQLQVQESGPGLVKPSETLSLTCTVSGGSISNSYFSWGWIRQPPGKGLEWIGSFYYGEKTYYNPSLKSRATISIDTSKSQFSLKLSSVTAADTAVYYCPRGPTMIRGVIDSWGQGTLVTVSSGGGGSGGGGSGGGGSEIVLTQSPATLSLSPGERATLSCRASQSVRSYLAWYQQKPGQAPRLLIYDASNRATGIPARFSGSGSGTDFTLTISSLEPEDFAVYYCQQRSNWPPTFGQGTKVEIK
notes: Built here from its name (scFv - G4S - scFv); Flag-tagged; also called TGFbR2 scFv VH-VL dimer
Take B1: the binding result in assay [1] is reported as “no binding”.

B2: mTGFbR2 VH1 (VHH)
VHH: EVQLLESGGGLVQPGGSLRLSCAASGFTFTTYGMGWVRQAPGKGLEWVSWIEKTGNKTYYADSVKGRFTISRDNSKNTLYLQMNSLRAEDTAVYYCAKARHIKVRSRDFDYWGQGTLVTVSS
notes: Single domain VH expressed in human CAR-T cells; Flag-tagged
In the case of B2, the binding result in the assay with hTGFβR2-Fc [2] is “no binding”.

B3: TGFbR2 scFv VH-VL (scFv)
scFv: QLQVQESGPGLVKPSETLSLTCTVSGGSISNSYFSWGWIRQPPGKGLEWIGSFYYGEKTYYNPSLKSRATISIDTSKSQFSLKLSSVTAADTAVYYCPRGPTMIRGVIDSWGQGTLVTVSSGGGGSGGGGSGGGGSEIVLTQSPATLSLSPGERATLSCRASQSVRSYLAWYQQKPGQAPRLLIYDASNRATGIPARFSGSGSGTDFTLTISSLEPEDFAVYYCQQRSNWPPTFGQGTKVEIK
notes: Secreted into CAR-T cell supernatant; Detected with anti-flag HRP; also called hTGFbR2 scFv VH-VL monomer; TGFbR2 scFv VH-VL monomer
Take B3: the binding result is “binds” in the assay with hTGFβR2-Fc [3] and “no binding” in assay [1].

B4: hTGFbR2 VH2 G4S dimer (VHH)
chain: EVQLLESGGGLVQPGGSLRLSCAASGSTFTEYRMWWVRQAPGKGLEWVSAIEPIGHRTYYANSVRGRFTISRDNSKNTLYLQMNSLRAEDTAVYYCAKQAPGEKWARRWDLDYWGQGTLVTVSSGGGGSEVQLLESGGGLVQPGGSLRLSCAASGSTFTEYRMWWVRQAPGKGLEWVSAIEPIGHRTYYANSVRGRFTISRDNSKNTLYLQMNSLRAEDTAVYYCAKQAPGEKWARRWDLDYWGQGTLVTVSS
notes: Flag-tagged; also called hTGFbR2-VH2 dimer
For the molecule B4, the binding result in assay [1] is recorded as “no binding”.

B5: hTGFbR2 VH3 G4S dimer (VHH)
chain: EVQLLESGGGLVQPGGSLRLSCAASGFTFGTDQMWWVRQAPGKGLEFVSRIDSPGGRTYYANSVKGRFTISRDNSKNTLYLQMNSLRAEDTAVYYCAKRQPAGVSGKYVDYWGQGTLVTVSSGGGGSEVQLLESGGGLVQPGGSLRLSCAASGFTFGTDQMWWVRQAPGKGLEFVSRIDSPGGRTYYANSVKGRFTISRDNSKNTLYLQMNSLRAEDTAVYYCAKRQPAGVSGKYVDYWGQGTLVTVSS
notes: It is built here from its name (VH3 - G4S - VH3); Flag-tagged; also called hTGFbR2-VH3 dimer
As to B5, the binding result in assay [1] is “no binding”.

B6: hTGFbR2 VH1 (VHH)
VHH: EVQLLESGGGLVQPGGSLRLSCAASGFTFGTEQMWWVRQAPGKGLEFVSRIDSPGGRTYYADSVKGRFTISRDNSKNTLYLQMNSLRAEDTAVYYCAKRRPTGVSGTFYDYWGQGTLVTVSS
notes: Single domain VH; Secreted into CAR-T cell supernatant; Detected with anti-flag HRP
In the case of B6, the binding result with hTGFβR2-Fc [4] was “binds”.

B7: hTGFbR2 VH3 monomer (VHH)
VHH: B6 VHH with E32D, D62N, R100Q, T102A, T107K, F108Y, Y109V
notes: Flag-tagged
As for B7, the binding result is on record as “binds” in the assay with hTGFβR2-Fc [5] and “no binding” in assay [1].

B8: hTGFbR2 VH2 monomer (VHH)
VHH: EVQLLESGGGLVQPGGSLRLSCAASGSTFTEYRMWWVRQAPGKGLEWVSAIEPIGHRTYYANSVRGRFTISRDNSKNTLYLQMNSLRAEDTAVYYCAKQAPGEKWARRWDLDYWGQGTLVTVSS
notes: Flag-tagged (anti-flag HRP detection); also called TGFbR2 hVH2
As for B8, the binding result with hTGFβR2-Fc [5] is on record as “binds”; in assay [1], “no binding”.

B9: TGFbR2 scFv VL-VH (scFv)
scFv: EIVLTQSPATLSLSPGERATLSCRASQSVRSYLAWYQQKPGQAPRLLIYDASNRATGIPARFSGSGSGTDFTLTISSLEPEDFAVYYCQQRSNWPPTFGQGTKVEIKGGGGSGGGGSGGGGSQLQVQESGPGLVKPSETLSLTCTVSGGSISNSYFSWGWIRQPPGKGLEWIGSFYYGEKTYYNPSLKSRATISIDTSKSQFSLKLSSVTAADTAVYYCPRGPTMIRGVIDSWGQGTLVTVSS
notes: Secreted into CAR-T cell supernatant; Detected with anti-flag HRP
As for B9, the binding result in the assay with hTGFβR2-Fc [4] is “binds”.
